What all share (assay type): biochemical, Porphyromonas gingivalis
Substrate in data set [1]: CC(=O)OP(=O)(O)O
Description: ATP formation coupled to hexokinase / glucose-6-phosphate dehydrogenase (NADPH, A340), secondary plots. The settings on record: co-substrate ADP (0.267-2.67 mM, extrapolated), 50 mM Tris/HCl pH 8.0, 1.3 mM MgCl2 (methods also mention MnCl2), 37°C. An excerpt:
(§1) ATP formation coupled to hexokinase / glucose-6-phosphate dehydrogenase (NADPH, A340), secondary plots on PgAck (PGN_1178)

Substrate in data set [2]: Nc1ncnc2c1ncn2[C@@H]1O[C@H](COP(=O)(O)OP(=O)(O)O)[C@@H](O)[C@H]1O
The description is as above. The settings on record: co-substrate AcP (0.0667-0.667 mM, extrapolated), 50 mM Tris/HCl pH 8.0, 1.3 mM MgCl2 (methods also mention MnCl2), 37°C.
Source text: as §1

Substrate in data set [3]: CC(=O)SCCNC(=O)CCNC(=O)[C@H](O)C(C)(C)COP(=O)(O)OP(=O)(O)OC[C@H]1O[C@@H](n2cnc3c(N)ncnc32)[C@H](O)[C@@H]1OP(=O)(O)O
In words: acetyl-CoA consumption at A233, Michaelis-Menten fit. The settings on record: 100 mM Tris/phosphate pH 9.0 (phosphate co-substrate), 20 mM KCl, 37°C, acetyl-CoA 50-200 µM. An excerpt: acetyl-CoA consumption at A233, Michaelis-Menten fit on PgPta (PGN_1179)

Consider two proteins from publication PMC6461089, “Characterization of the phosphotransacetylase-acetate kinase pathway for ATP production in Porphyromonas gingivalis” (Journal of Oral Microbiology, 2019).

The term Km denotes the substrate concentration at which the rate is half of its maximum. In general, Vmax refers to the top rate of the reaction or transport when substrate is in excess. A word on the kcat: it is the number of substrate molecules converted per active site and unit of time at saturation.

B1: PgAck (PGN_1178) (Porphyromonas gingivalis ATCC 33277) (protein)
chain: MKVLVLNCGSSSVKYKLLEMPKGDVLAQGGVEKLGLPGSFLKLTMPNGEKVVLEKDMPEHTIAVEFILSVLKDDKYGCIKSYEEIDAVGHRLVHGGEKFSNSVEITPEVIAKVEECIPLAPLHNPANLKGVVAIEKLLPGIRQVGVFDTAFFQTMPEHVYRYALPYDMCNKHGVRRYGFHGTSHRYVSARACEILGLDYDKTRIITAHIGNGASIAAIKNGKALDVSLGMTPVEGLMMGTRSGDVDPGVLTFLMEAEGLQAAGISELINKKSGVLGVSGVSSDLREIEDAIKNGNERATLAMTMYDYRIKKYVGAYAAAMGGVDVLVFTGGVGENQYTTREKVCTDMEFMGIVFDSKVNEGMRGKEMVISKPESKVTVIVVPTDEEYMIASDTMTILK
notes: full length (398 residues), E. coli BL21(DE3), pET28a, N-terminal His6 tag cut off by thrombin; homodimer (108 kDa by gel filtration); EC 2.7.2.1
As for B1, in data set [1], the Km is recorded as 22.2 ± 0.2 µM, the Vmax is 145 µmol/min/mg and the turnover number (kcat) was 105 ± 1 s⁻¹. Moreover, in data set [2], the Michaelis constant (Km) was 188 ± 22 µM, the maximal velocity (Vmax) was 145 µmol/min/mg and the catalytic constant (kcat) is 105 ± 1 s⁻¹.

B2: PgPta (PGN_1179) (Porphyromonas gingivalis ATCC 33277) (protein)
chain: MDLIQDVIRRAQENKQRIVLPEGLEPRTLEAADRLMADKVVNIILIGNVDSVKAKVAELGLKNLDEAVIIDPNNHPKKQQYTDLLLQIRQKKGLTPEKAAELVENPLYLGCLIVKSGDADGLIAGAQNTTGDVLRPALQVIKTAPGMTSVSGTFLLFTKAKEYGKDGLLLVADCAVIPNPTADELAQIAVATARTAKAIADIEPRVAMLSFSTKGSAKHEMTDKVVEATRMAQEMAPDLLIDGEMQADAALVERVAALKAPGSNVAGKANVLVFPTLEVGNIAYKLVERLGHAEAVGPILQGMAAPVNDLSRGCSVEDIYRMVAITANQAIAAKEQ
notes: full length (domains span residues 1-336), E. coli BL21(DE3), pGEX-6P-1, GST tag cut off by PreScission protease; EC 2.3.1.8
On to B2, for which, in data set [3], the Michaelis constant (Km) was 63.8 ± 7.5 µM, the maximum rate (Vmax) was determined as 2470 ± 105 µmol/min/mg and the turnover number (kcat) is 1490 ± 63 s⁻¹.
